# T1: monkey PD-1 with mFc (monkey PD-1-mFc) (monkey)
# T1 construct: also called monkey PD-1 dimer; MfPD-1 dimer
# T1 chain: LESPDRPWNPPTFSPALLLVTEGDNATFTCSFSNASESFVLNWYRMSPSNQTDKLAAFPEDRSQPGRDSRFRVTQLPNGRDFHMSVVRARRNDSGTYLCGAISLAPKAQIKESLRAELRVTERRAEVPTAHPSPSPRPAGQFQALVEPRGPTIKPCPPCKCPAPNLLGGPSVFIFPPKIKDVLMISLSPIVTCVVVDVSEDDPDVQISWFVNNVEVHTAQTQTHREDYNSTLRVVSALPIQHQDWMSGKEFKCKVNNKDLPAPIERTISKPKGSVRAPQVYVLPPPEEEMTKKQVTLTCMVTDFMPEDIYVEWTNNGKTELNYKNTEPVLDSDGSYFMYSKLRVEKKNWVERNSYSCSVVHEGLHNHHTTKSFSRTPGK
# T2: recombinant cynomolgus monkey PD-1 expressed with a C-terminal myc-myc-hexahistidine tag (cynomolgus monkey)
# T2 construct: also called MfPD-1-MMH; MIPD-1-MMH
# T2 chain: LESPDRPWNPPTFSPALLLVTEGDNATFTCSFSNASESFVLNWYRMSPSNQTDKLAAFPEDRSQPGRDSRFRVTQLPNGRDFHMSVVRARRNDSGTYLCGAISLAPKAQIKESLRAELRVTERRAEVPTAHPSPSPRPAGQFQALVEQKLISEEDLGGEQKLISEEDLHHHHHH
# What was measured:
# [1] = target: T1, monkey PD-1 with mFc (monkey PD-1-mFc); assay: SPR 25C, mAb captured
# [2] = target: recombinant human PD-1 expressed with a C-terminal human IgG1 Fc tag (hPD-1-hFc) (human); assay: SPR Biacore 3000, captured hPD-L1-mFc
# [3] = target: T1, monkey PD-1 with mFc (monkey PD-1-mFc); assay: SPR 37C, mAb captured;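 also: Real-time binding of antigen to purified anti-PD-1 antibodies, measured by surface plasmon resonance on a Biacore 4000 or T200 instrument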
# [4] = target: T3, recombinant human PD-1 dimer expressed with a C-terminal mouse IgG2a Fc tag (hPD-1-mFc) (human); assay: BLI Octet Red 96, captured hPD-L1-hFc
# T3 construct: also called human PD-1-mFc
# [5] = target: T4, human PD-1 dimer (human PD-1-mFc or human PD-1-hFc) (human, Fc-mediated homodimer; one copy of the chain is given.); assay: SPR Biacore, mAb captured, 25 C
# T4 construct: also called hPD-1-mFc; hPD1-hFc; not shown: The C-terminal Fc tag
# [6] = target: T2, recombinant cynomolgus monkey PD-1 …; assay: SPR Biacore, mAb captured, 25 C
# [7] = target: T2, recombinant cynomolgus monkey PD-1 …; assay: SPR Biacore, mAb captured, 37 C
# Sequence of recombinant human PD-1 expressed with a C-terminal human IgG1 Fc tag (hPD-1-hFc) (human) (chain, as listed by the source limits assumed): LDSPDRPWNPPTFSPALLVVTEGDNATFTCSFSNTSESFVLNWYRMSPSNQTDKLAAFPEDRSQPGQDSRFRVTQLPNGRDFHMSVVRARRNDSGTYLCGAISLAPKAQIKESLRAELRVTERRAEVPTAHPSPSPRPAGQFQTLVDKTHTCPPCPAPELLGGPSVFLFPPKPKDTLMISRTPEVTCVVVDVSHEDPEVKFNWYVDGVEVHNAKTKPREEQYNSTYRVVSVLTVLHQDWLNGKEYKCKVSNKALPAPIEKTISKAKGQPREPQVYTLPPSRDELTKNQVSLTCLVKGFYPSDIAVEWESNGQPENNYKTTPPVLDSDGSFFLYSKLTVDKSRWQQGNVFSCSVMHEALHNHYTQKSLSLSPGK
# T4 sequence (chain, as listed by the source limits assumed): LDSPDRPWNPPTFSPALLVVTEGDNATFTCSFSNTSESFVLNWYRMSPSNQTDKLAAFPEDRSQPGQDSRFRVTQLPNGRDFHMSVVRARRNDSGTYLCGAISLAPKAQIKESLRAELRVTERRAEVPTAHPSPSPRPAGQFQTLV
100 nM Monkey PD-1-mFc Bound [1] [RU],t½ [1] [min],binding of the mixture of 100 nM hPD-1-hFc and 500 nM antibody [2] [RU],100 nM Monkey PD-1-mFc Bound [3] [RU],binding of the mixture of 100 nM hPD-1-mFc and 500 nM antibody [4] [nm],other results,Binder
17,4,365,6,,% Blocking [2]: -265%; t½ [3]: 1.1 min,"H4H9068P2 (antibody, V domains shown) VH: EVQLVESGGGLVQRGGSLRLSCAASGFSFSSYAMNWVRQAPGKGLEWVSTISDSGGSTYYADSVKGRFTISRDNSKNTLSLQMNSLRAEDTAVYYCAKDQGGSYPYYFHYWGQGTLVTVSS VL: not shown"
83,67,-5,40,,,"H4xH9119P2 (antibody, V domains shown, human IgG4 Fc with 2 or more amino acid changes (US20100331527)) VH: EVQLVESGGGLVQPGRSLRLSCAASGFTFEDYAMHWVRQAPGKGLEWVSGIGWSNVKIGYADSVKGRFTISRDNVRNSLYLQMNSLRTEDTAFYYCVKAYTSMLTLYFDYWGQGTLVTVSS VL: not shown"
52,104,0,46,,t½ [3]: 23 min,"H4xH9120P2 (antibody, V domains shown, human IgG4 Fc with 2 or more amino acid changes (US20100331527)) VH: QVQLVQSGAEVKRPGASVKVSCKASGYTFTSFYMYWVRQAPGQGLEWMGIINPSDGSTSNAQKFQGRVTMTRDTSTSTVYMELSSLRSEDTAVYYCARRVAGDIFDIWGQGTMVTVSS VL: not shown"
64,94,-5,60,,t½ [3]: 14 min,"H4xH9128P2 (antibody, V domains shown, human IgG4 Fc with 2 or more amino acid changes (US20100331527)) VH: QVQLQESGPGLVKPSETLSLTCTVSGGSISSYHWNWIRQSPGKGLEWIGYIYYIGSTDYNPSLESRVTISVDTSKNQFSLKLSSVTAADTAVYYCARVPVGATGASDVWGQGTMVTVSS VL: not shown"
74,81,-3,52,,t½ [3]: 15 min,"H4xH9135P2 (antibody, V domains shown, human IgG4 Fc with 2 or more amino acid changes (US20100331527)) VH: EVQLVESGGSVVRPGGSLRLSCVVSGFTFEDYGLSWVRQIPGKGLEWVSGISWTGGNTGYADSVKGRFTISRDNAKNSLYLQMNSLRAEDTALYHCTRDRQWLMQWYFDYWGQGTLVTVSS VL: not shown"
84,77,-6,94,,t½ [3]: 19 min,"H4xH9145P2 (antibody, V domains shown, human IgG4 Fc with 2 or more amino acid changes (US20100331527)) VH: QVQLVESGGGVVQPGRSLRLSCSASGFTFSAYAMHWVRQAPGKGLEWVAAISYGGSDKYYADSVKGRFTISRDNSKNTLYLQMNSLRTDDTAVYYCAKSAHWNFFFDYWGQGTLVTVSS VL: not shown"
,,,,0,,"H2aM7788N (antibody, mouse IgG2a, V domains shown, mouse IgG2a Fc; human variable regions; also called H2M7788N) VH: EVQLVESGGGLVQPGGSLRLSCGASGFTFRNYDMHWVRQITGKGLEWVSAIGSAGDTYYPDSVKGRFTISRENAKNSLYLQMNSLRVGDTAVYYCTRDIHCSSTRCYGMDVWGQGTTVTVSS VL: not shown"
,,,,0.05,,"H1M7789N (antibody, mouse IgG1, V domains shown, mouse IgG1 Fc; human variable regions; also called H1M7789W) VH: EVQLLESGGGLVQPGGSLRLSCSASGFTFSSYTMNWVRQAPGKGLEWVSGISDTGGNTYYTDSVKGRFTVSRDNSKNTLSLQMNSLRAEDTAVYYCAKDQGGSYPYYFHYWGQGSLVTVSS VL: DIQMTQSPSSLSASVGDRVTITCRASQSISSYLIWYQQKPGTAPKFLIYAASSLQSGVPSRFSGCGSGTDFTLTISSLQPEDFATYYCQQSYSTPPITFGQGTRLEIK"
,,,,0.23,,"H2aM7791N (antibody, mouse IgG2a, V domains shown, mouse IgG2a Fc; human variable regions; also called H2M7791N) VH: QMQLQQWGAGLLKPSETLSLTCVVYGGSLNGYYWSWIRQSPGKGLEWIGEIDHSGSTNYNPSLKNRVTMSVDTSKIQFSLKLTSVTVADTAVYYCAREGLLPFDYWGQGTLVTVSS VL: EIVLTQSPGTLSLSPGERVTLSCRASQSVYSNYLAWYQQNPGQAPRLLIYAASNRATGIPDRFSGSGSGTDFTLTISRLEPEDFAVYYCHQYATSPWTFGQGTKVEIK"
,,,,-0.01,,"H2aM7794N (antibody, V domains shown, mouse IgG2a Fc; human variable regions; also called H2M7794N) VH: QLQLQESGPDLVKPSDTLSLTCTVSDDSISSTTYYWAWIRQPPGKGLEWIGSMSYNGNNYYNPSLKSRVAISAGTSQKQFSLKLTSVTAADTAVYHCARHLGYNGNWYPFDFWGQGILVTVSS VL: not shown"
,,,,-0.01,,"H2aM7795N (antibody, mouse IgG2a, V domains shown, mouse IgG2a Fc; human variable regions; also called H2M7795N) VH: EVQVVESGGGLVEPGRSLRLSCKASGFTFDDYAMHWVRQTPGKALEWVSGINWSGNNIGYADSVKGRFTISKDDAKNSLYLQMNSLRPEDTALYYCTKDISITGTLDAFDVWGQGTMVTVSS VL: DIQMTQSPISVSASVGDRVTITCRASQGISNWLAWYQQKPGIAPKLLIYSASSLQSGVPSRFRGSGSGTDFTLTIGSLQPEDFATYYCQQAHSFPLTFGGGTKVEIK"
,,,,-0.02,,"H2aM7796N (antibody, mouse IgG2a, V domains shown, mouse IgG2a Fc; human variable regions; also called H2M7796N) VH: QVQLVESGGGVVQPGRSLRLSCAASGFTFSSYGMHWVRQAPGKGLEWVAIIWSDGDSEYNLDSVKGRFTISRDNSKNTLYLQMNSLRVEDSAVYYCARDRDLEDIWGQGTMVTVSS VL: DIQMTQSPSSLSASVGDRVTITCRASQGIRNDLGWYQQKPGKAPKRLIYAASNLQSGVPSRFSGSGSGTEFTLTISSLQPEDFATYYCLQHNSYPLTFGGGTKVEIK"
,,,,0.01,,"H2aM7798N (antibody, mouse IgG2a, V domains shown, mouse IgG2a Fc; human variable regions; also called H2M7798N) VH: EVQLLESGGVLVQPGGSLRLSCAASGFTFSNFGMTWVRQAPGKGLEWVSGISGGGRDTYFADSVKGRFTISRDNSKNTLYLQMNSLKGEDTAVYYCVKWGNIYFDYWGQGTLVTVSS VL: DIQMTQSPSSLSASVGDSITITCRASLSINTFLNWYQQKPGKAPNLLIYAASSLHGGVPSRFSGSGSGTDFTLTIRTLQPEDFATYYCQQSSNTPFTFGPGTVVDFR"
,,,,0,,"H1M7799N (antibody, mouse IgG1, V domains shown, mouse IgG1 Fc; human variable regions) VH: EVQLVESGGGLVQPGGSLRLSCAASGFTVSNNYMSWVRQAPGKGLEWVSVIYSGGFTYYTDSVKGRFTISRHNSKNTLYLQMNSLRAEDTAVYYCARYYYDTSDYWTFFDYWGQGTLVTVSS VL: EIVMTQSPATLSVSPGERATLSCRASQSVSSNLAWYQQKPGQAPRLLIYGASTRATGIPARFSGSGSGTEFTLTISSLQSGDFAVYYCQQYNNWPLTFGGGTKVEIN"
,,,,0,,"H1M7800N (antibody, mouse IgG1, V domains shown, mouse IgG1 Fc; human variable regions) VH: EVQLVESGGGLVQPGGSLRLSCAASGFTVSNNYMSWVRQAPGKGLEWVSVIYSGGFTYYTDSVKGRFTISRHNSKNTLYLQMNSLRAEDTAVYYCARYYYDTSDYWTFFDYWGQGTLVTVSS VL: EIVMTQSPATLSVSPGERATLSCRASQSVSSNLAWYQQKPGQAPRLLIYGASTRATGIPARFSGSGSGTEFTLTISSLQSGDFAVYYCQQYNNWPLTFGGGTKVEIN"
,,,,,koff [5]: 0.000152 s⁻¹,"H4xH9119P2 (antibody, V domains shown, human IgG4 Fc with 2 or more amino acid changes as in US20100331527 (H4xH prefix)) VH: EVQLVESGGGLVQPGRSLRLSCAASGFTFEDYAMHWVRQAPGKGLEWVSGIGWSNVKIGYADSVKGRFTISRDNVRNSLYLQMNSLRTEDTAFYYCVKAYTSMLTLYFDYWGQGTLVTVSS VL: not shown"
,,,,,Kd [5]: 0.786 nM,"H4xH9008P (antibody, V domains shown, human IgG4 Fc with 2 or more amino acid changes as in US20100331527 (H4xH prefix); also called H4x19008P) VH: EVQLVESGGGLVRPGGSLRLSCAASGFTFSTYAMAWVRQTPGKGLEGVSAIGGSGDSTYYVDSVKGRFTISRDNSKSTLFLQMNSLRAEDTAVYYCVKVRNYDGSFDIWGQGTMVTVSS VL: not shown"
,,,,,Kd [6]: 3.8 nM,"H4H7798N (antibody, human IgG4, V domains shown, human IgG4 Fc; also called M4H7798N; HAH7798N) VH: EVQLLESGGVLVQPGGSLRLSCAASGFTFSNFGMTWVRQAPGKGLEWVSGISGGGRDTYFADSVKGRFTISRDNSKNTLYLQMNSLKGEDTAVYYCVKWGNIYFDYWGQGTLVTVSS VL: DIQMTQSPSSLSASVGDSITITCRASLSINTFLNWYQQKPGKAPNLLIYAASSLHGGVPSRFSGSGSGTDFTLTIRTLQPEDFATYYCQQSSNTPFTFGPGTVVDFRR"
,,,,,t½ [7]: 0.6 min,"H4xH9034P (antibody, V domains shown, human IgG4 Fc with 2 or more amino acid changes as in US20100331527 (H4xH prefix); also called H4xH9034P2; H4xH8034P2) VH: EVQLVESGGGVVRPGGSLRLSCTASGFTFDDYGMSWVRQAPGKGLEWISGIGWTGGRSSYADSVRGRFTISRDNAKNSLYLQMNSLGAEDTALYYCARDRQWLVQWYFDYWGQGTLVTVSS VL: not shown"
,,,,,binding result [6]: no binding (tested: 200 nM),"H2aM7796N (antibody, mouse IgG2a, V domains shown, mouse IgG2a Fc; also called H2M7796N) VH: QVQLVESGGGVVQPGRSLRLSCAASGFTFSSYGMHWVRQAPGKGLEWVAIIWSDGDSEYNLDSVKGRFTISRDNSKNTLYLQMNSLRVEDSAVYYCARDRDLEDIWGQGTMVTVSS VL: DIQMTQSPSSLSASVGDRVTITCRASQGIRNDLGWYQQKPGKAPKRLIYAASNLQSGVPSRFSGSGSGTEFTLTISSLQPEDFATYYCLQHNSYPLTFGGGTKVEIK"
